From US12037419B2 (The Feinstein Institutes for Medical Research, priority 2016, dated 2024) come the findings set out here.

Experiment [1] addresses T1, RAGE (Homo sapiens, UniProt Q15109).
T1 construct: purchased R&D Systems
Nature of the experiment: SPR assay of C1q and RAGE binding. The conditions noted are these: data not shown. On the procedure:
Surface Plasmon Resonance analysis (SPR): For real-time binding interaction studies, a BIAcore T200 instrument (GE Healthcare) was used. […] A 1:1 mixture of N-hydroxysuccinimide and N-ethyl-N-(dimethyaminopropyl) carbodiimide was used to activate 2 flow-cells of the CMS chip. […] The analytes were diluted in 1×PBS+0.01% (vol/vol) tween-20 buffer. The analytes were sequentially injected at a flow rate of 30 μl/min for 60 s at 25° C. The KD was dertermined using the BIAcore evaluation software 2.0 (GE Healthcare) supposing a 1:1 binding ratio.
In general terms: SPR reads the build-up and loss of mass on a sensor chip optically.

The subject of experiment [2] is human monocytes. Nature of the experiment: Induction of anti-inflammatory molecules / M2-like phenotype (Mer, PDL-1, IL-10, CD163) in monocytes. The class given is cell-based. The conditions noted are these: together with HMGB1 3 μg/ml, C1q 25 μg/ml or C1q tail 53 μg/ml, 24 h. As to the method: (§1) Monocyte isolation and stimulation: Human PBMCs were obtained following institutional guidelines of the Feinstein Institute for Medical Research (Feinstein) and isolated from blood of healthy donors by density centrifugation (New York Blood Bank). Monocytes were negatively enriched using a human monocyte enrichment kit (Stem Cell Technology). Purity of monocytes (≥90% CD11b+CD14+LAIR-1+) was determined by flow cytometry. […] Splenic murine monocytes from wild type mice, RAGE deficient or LAIR-1 conditional knockout mice were isolated using EasySep mouse monocyte enrichment kit (Stem Cell Technology). C57BL/6 mice, Lysozyme2-Cre transgenic mice were purchased from Jackson Laboratory. Myeloid specific LAIR-1 conditional knockout mice (Lysozyme2-Cre×LAIR fl/fl) were bred and maintained in our facility (Feinstein) under specific pathogen-free conditions. RAGE deficient mice (Department of Medicine, Karolinska Institute Stockholm, Sweden) were maintained at Feinstein. Eight-to ten weeks old male mice were used for experiments. All animal procedures were approved by the Feinstein Institutional Animal Care and Use Committee.
RT-PCR analysis and primers: Total RNA was extracted from cells (1-2×10^6 cells per sample) with an RNeasy kit (Qiagen, Venlo, Limburg, Netherlands) and cDNA was generated using an iScript cDNA synthesis kit (Bio-Rad laboratories). […] The relative induction was calculated by 2-ΔΔCt.
(§2) Cytokine analysis: Cytokine levels were measured using a Human Proinflammatory 7-plex assay following the manufacturer's protocols (Meso Scale Discovery (MSD). MSD plates were analyzed on the MS2400 imager (MSD). All standards and samples were run in duplicates.
Flow cytometry: Cells were suspended in staining buffer containing 2% BSA and incubated with Fc block (Miltenyi Biotec) for 15 min on ice. […] Events were acquired using either an LSRII or Fortessa cell analyzer (BD Biosciences), and data were analyzed using FlowJo (Tree star).

The subject of experiment [3] is human monocytes. As to the kind of experiment: HMGB1-induced monocyte activation (cytokine mRNA by q-PCR, protein by ELISA/MSD). The class given is cell-based. The conditions noted are these: HMGB1 alone. On the procedure:
as §1
RT-PCR analysis and primers: Total RNA was extracted from cells (1-2×10^6 cells per sample) with an RNeasy kit (Qiagen, Venlo, Limburg, Netherlands) and cDNA was generated using an iScript cDNA synthesis kit (Bio-Rad laboratories). Real Time-PCR was performed on a Light Cycler 480 II (Roche) using Light Cycler 480 master mix with primers (Applied Biosystems) for IFNα1 (Hs00256882), IFNα7 (mm02525960), MX1 (Hs00182073, mm01217998), IL-6 (Hs00985639, mm99999064), TNFα (Hs00174128, mm00443258), IL-12a (Hs00168405), Mer (Hs01031973), PDL-1 (Hs01125301), IL-10 (Hs00961622), CD163 (Hs00174705), HPRT1 (Hs99999909, mm01545399) and Polr2a (Hs00172187). The genes of interest were normalized to the expression of house keeping genes and were compared to a control condition with no treatment. The relative induction was calculated by 2-ΔΔCt.
Transfection: For RNA interference assays, human monocytes were transfected using an Amaxa Nucleofector kit (Lonza) with a greater than 40% transfection efficiency. siRNAs were obtained from Qiagen. The target sequence of human LAIR1-11 is […] (SEQ ID NO:9). The efficiency of knockdown was determined by flow cytometry and q-PCR.
as §2
A general note: An ELISA detects its analyte on a solid surface through an enzyme-linked reagent.

In experiment [4] the test system is human monocytes. Nature of the experiment: SeaHorse cellular flux assay (OCR, ECAR). The class given is cell-based. To be noted: HMGB1 3 μg/ml alone, 24 h. As to the method: Cell metabolism analysis using SeaHorse Cellular Flux assay. […] One hour prior to measurement, culture medium was exchanged for assay medium (unbuffered DMEM (Sigma), supplemented with 10 mM Glucose, 1 mM Pyruvate and 2 mM Glutamine for mitochondrial assays, or with 2 mM Glutamine alone for glycolytic assays. Reagents were injected during the measurement to achieve final concentrations of oligomycin (1 μM), carbonyl cyanide p-(trifluoromethoxy) phenylhydrazone (FCCP) ([…]), Rotenone/antimycin A (0.5 μM). Glucose (10 mM), and 2-Deoxy-D glucose (50 mM). Oxygen consumption rate (OCR) and Extracellular acidification rate (ECAR) values were measured using a SeaHorse XfP instrument (SeaHorse bioscience). Measured values were normalized to the number of live cells present in each well as determined by a trypan blue staining by the end of each run. For OCR/ECAR ratio calculations, an average of the last two basal readings was used for both OCR and ECAR.

Experiment [5] deals with human monocytes. As to the kind of experiment: Monocyte to DC differentiation with GM-CSF and IL-4 (flow cytometry). The class given is cell-based. To be noted: HMGB1 alone 24 h, then GM-CSF and IL-4.
Experiment [6] has as its system allogeneic primary human CD4 T cells. As to the kind of experiment: Allogeneic mixed lymphocyte reaction. The class given is cell-based. To be noted: HMGB1 3 μg/ml alone. On the procedure:
Allogeneic CD4 T lymphocytes were isolated from blood using the Naïve CD4+ T cell isolation kit II (Miltenyi Biotec.) following the manufacturer's protocol. Cells were analyzed by flow cytometry (>90%). T cells were labeled with 5 μM Cell Trace Violet cell proliferation kit (Thermo Fisher Scientific), added to mono/macrophages at a density of 2×10^5 cells/well (a 1:2 ratio) in the presence of 1 μg/ml anti-CD3 (OKT3, eBioscience). Control cultures contained medium only or T cells or mono/macrophages alone. After 4 days, cells were stained with FITC-anti-CD4, PerCPCy 5.5-CD14, PE-LAIR-1 and fixable viability dyes (FVD, eBioscience) for 20 min at room temperature and subsequently washed and fixed. Live cells (FVD-negative cells) were then gated on CD4-positive, and cell trace violet was assessed by flow cytometry on a BD LSR II (BD Biosciences). Cell proliferation was analyzed as described (51). The % divided cells was defined as the probability that a cell has divided at least once from the original population. The division index was defined as the average number of cell divisions that a cell in the original population has undergone.

Experiment [7] relates to murine macrophages. Nature of the experiment: RvD2 and LTB4 in murine macrophages after HMGB1 in vivo (FIG. 22). Details: species or system mouse.
Experiment [8] deals with NZB/W mice. As to the kind of experiment: NZB/W lupus mice in vivo (FIG. 23-25). Also noted: species or system mouse.

T1 sequence (Q15109 23-342 limits assumed): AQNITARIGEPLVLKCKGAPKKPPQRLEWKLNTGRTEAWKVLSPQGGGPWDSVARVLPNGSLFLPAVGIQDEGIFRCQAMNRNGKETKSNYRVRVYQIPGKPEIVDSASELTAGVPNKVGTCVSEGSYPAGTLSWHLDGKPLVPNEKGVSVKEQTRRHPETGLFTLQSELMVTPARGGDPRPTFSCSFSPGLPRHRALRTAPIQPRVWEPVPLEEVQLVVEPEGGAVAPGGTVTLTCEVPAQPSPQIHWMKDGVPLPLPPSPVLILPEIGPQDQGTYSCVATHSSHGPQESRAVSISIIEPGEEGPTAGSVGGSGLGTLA

In the case of “C1q tail: C1q tail purified from whole C1q; collagen-like tail”, the “binding to RAGE” value in experiment [1] is “No binding”. In addition, the “transcription and protein expression of anti-inflammatory factors (Mer, PDL-1, IL-10, CD163)” value in experiment [2] is given as “did not mediate similar effects”.

B1: HMGB1: Recombinant HMGB1 (Calmodulin Binding Protein Epitope, Cbp tagged) (protein)
chain: MGKGDPKKPRGKMSSYAFFVQTCREEHKKKHPDASVNFSEFSKKCSERWKTMSAKEKGKFEDMAKADKARYEREMKTYIPPKGETKKKFKDPNAPKRPPSAFFLFCSEYRPKIKGEHPGLSIGDVAKKLGEMWNNTAADDKQPYEKKAAKLKEKYEKDIAAYRAKGKPDAAKKGVVKAEKSKKKKEEEEDEEDEEDEEEEEDEEDEDEEEDDDDE
modifications: left off: small tags and cut ends
In the case of B1, in experiment [3], the “transcription and secretion of type 1 IFN, IFN-inducible genes and proinflammatory cytokines” value is reported as “dramatically increased”. In experiment [4], the OCR/ECAR ratio entry is given as “significantly decreased”; the “baseline oxidative phosphorylation (OCR) and glycolytic metabolism (ECAR)” value is “enhanced”. In addition, the “monocyte to DC differentiation after pre-treatment with HMGB1” value in experiment [5] is listed as “monocyte to DC differentiation occurred”. The “stimulation of T cells by monocytes exposed to HMGB1” value in experiment [6] is reported as “induced the strongest mixed lymphocyte reaction”.

B2: KLKEKYEKDIAAYRAKGKPDAAKKGVVKAEKSKKGGGGSGGGGSGGGGSKGEQ GEPGAPGI (peptide)
chain: KLKEKYEKDIAAYRAKGKPDAAKKGVVKAEKSKKGGGGSGGGGSGGGGSKGEQGEPGAPGI
modifications: Artificial based on human
notes: HMGB1 B box-linker-C1q peptide
Turning to B2, the “LTB4 induction by HMGB1 in murine macrophages” value in experiment [7] is given as “abolishes LTB4 induction”. In addition, the “RvD2 in murine macrophages” value in experiment [7] (HMGB1 challenge) is reported as “induces RvD2”. Besides, in experiment [8] (NZB/W mice in vivo), the “anti-DNA IgM/IgG-producing splenocytes” value is given as “decreases anti-DNA IgM/IgG-producing splenocytes”; the “inflammatory and anti-inflammatory markers in splenocytes” value was “decreases inflammatory and increases anti-inflammatory markers”; the “progression of serum anti-dsDNA antibodies” value was “slows the progression”. For the same molecule, in experiment [8] (NZB/W mice, staining data not shown), the “kidney IgG deposition” value is reported as “decreases kidney IgG deposition”.
